Measured values taken from PMC11934139.

Target: αCRP scFv-His6 (LA13-IIE3)
Assay: BLI; αCRP scFv (2 μg/mL) immobilised on Octet Ni-NTA biosensors; CRP at 250, 125, 62.5, 15.6 and 7.8 nM; HBS Kinetics Buffer (1% heat-inactivated BSA, 0.2% Tween 20, 10 mM HEPES pH 7.4, 150 mM NaCl), 30 °C; two-state reaction model

Kd: 588 nM
B1: human C-reactive protein (natural protein)
chain: QTDMSRKAFVFPKESDTSYVSLKAPLTKPLKAFTVCLHFYTELSSTRGYSIFSYATKRQDNEILIFWSKDIGYSFTVGGSEILFEVPEVTVAPVHICTSWESASGIVEFWVDGKPRVRKSLKKGYTVGAEASIILGQEQDSFGGNFEGSQSLVGDIGNVNMWDFVLSPDEINTIYLGGPFSPNVLNWRALKYEVQGEVFTKPQLWP
